Data published in the supplement of paper PMC10567573.

B1: DLC1 (parent)
chain: AIQGISEKEKAEIEAKEACDWLRA
B2: NET1 (parent)
chain: RVRPLARVTSLANLISPVRNGAVR

Variants of: B1
Assay: protein stability index of a GFP-peptide fusion (GPS, HEK-293T) (PSI 1-6); higher = more stable
Settings: c terminus: a fixed tail appended
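Note: lentivirally expressed fusions sorted by FACS into six bins by GFP to DsRed ratio, PSI derived from sequencing read proportions per bin multiplied by bin number.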

Row | Variant | protein stability index
1 | E7V | 3.88
2 | E7W | 3.58
3 | E7Y | 3.63
4 | K8A | 3.75
5 | K8C | 4
6 | K8D | 4.61
7 | K8E | 5.05
8 | K8F | 3.97
9 | K8G | 4.6
10 | K8H | 4.4
11 | K8I | 4.5
12 | K8L | 3.85
13 | K8M | 4.49
14 | K8N | 3.88
15 | K8P | 4.72
16 | K8Q | 4.3
17 | K8R | 4.43
18 | K8S | 3.98
19 | K8T | 5.01
20 | K8V | 4.2
21 | K8W | 3.68
22 | K8Y | 3.69
23 | E9A | 4.19
24 | E9C | 3.76
25 | E9D | 4.2
26 | E9F | 2.69

Row | Variant | protein stability index
27 | E9G | 4.23
28 | E9H | 4.71
29 | E9I | 3.29
30 | E9K | 3.97
31 | E9L | 2.97
32 | E9M | 3.22
33 | E9N | 4.5
34 | E9P | 4.08
35 | E9Q | 4.14
36 | E9R | 3.08
37 | E9S | 4.22
38 | E9T | 4.12
39 | E9V | 3.88
40 | E9W | 3.63
41 | E9Y | 3.48
42 | K10A | 4.67
43 | K10C | 4.54
44 | K10D | 4.47
45 | K10E | 4
46 | K10F | 3.71
47 | K10G | 4.17
48 | K10H | 4.38
49 | K10I | 3.8
50 | K10L | 4.08
51 | K10M | 4.67
52 | K10N | 4.71

Row | Variant | protein stability index
53 | K10P | 4.18
54 | K10Q | 4.57
55 | K10R | 4.04
56 | K10S | 4.61
57 | K10T | 4.68
58 | K10V | 3.9
59 | K10W | 3.73
60 | K10Y | 4.11
61 | A11C | 4.32
62 | A11D | 5.18
63 | A11E | 4.87
64 | A11F | 3.64
65 | A11G | 4.56
66 | A11H | 4.34
67 | A11I | 3.67
68 | A11K | 4.47
69 | A11L | 4.23
70 | A11M | 3.99
71 | A11N | 4.5
72 | A11P | 4.51
73 | A11Q | 4.57
74 | A11R | 4.23
75 | A11S | 4.79
76 | A11T | 4.67
77 | A11V | 4.61
78 | A11W | 3.53

Row | Variant | protein stability index
79 | A11Y | 4.16
80 | E12A | 3.89
81 | E12C | 3.85
82 | E12D | 4.43
83 | E12F | 3.82
84 | E12G | 4.42
85 | E12H | 3.46
86 | E12I | 4.02
87 | E12K | 3.81
88 | E12L | 3.72
89 | E12M | 3.98
90 | E12N | 4.5
91 | E12P | 4.63
92 | E12Q | 4.18
93 | E12R | 3.86
94 | E12S | 4.02
95 | E12T | 4.32
96 | E12V | 4.17
97 | E12W | 3.26
98 | E12Y | 3.53
99 | I13A | 4.7
100 | I13C | 5.09
101 | I13D | 5.06
102 | I13E | 5.08
103 | I13F | 3.94
104 | I13G | 5.08

Row | Variant | protein stability index
105 | I13H | 4.88
106 | I13K | 4.89
107 | I13L | 4.21
108 | I13M | 4.78
109 | I13N | 4.66
110 | I13P | 5.13
111 | I13Q | 4.44
112 | I13R | 4.53
113 | I13S | 4.85
114 | I13T | 4.16
115 | I13V | 4.64
116 | I13W | 4.26
117 | I13Y | 4.46
118 | E14A | 4.1
119 | E14C | 4.07
120 | E14D | 4.58
121 | E14F | 3.78
122 | E14G | 3.73
123 | E14H | 3.74
124 | E14I | 3.81
125 | E14K | 3.5
126 | E14L | 3.87
127 | E14M | 3.59
128 | E14N | 3.54
129 | E14P | 4.12
130 | E14Q | 4.36

Row | Variant | protein stability index
131 | E14R | 3.61
132 | E14S | 3.93
133 | E14T | 4.34
134 | E14V | 3.24
135 | E14W | 2.86
136 | E14Y | 3.91
137 | A15C | 4.29
138 | A15D | 4.4
139 | A15E | 4.81
140 | A15F | 3.57
141 | A15G | 3.97
142 | A15H | 4.33
143 | A15I | 3.91
144 | A15K | 4.61
145 | A15L | 4
146 | A15M | 4.24
147 | A15N | 4.24
148 | A15P | 4.51
149 | A15Q | 4.52
150 | A15R | 4.18
151 | A15S | 4.81
152 | A15T | 3.76
153 | A15V | 4.53
154 | A15W | 3.65
155 | A15Y | 4.33
156 | K16A | 4.35

Row | Variant | protein stability index
157 | K16C | 4.14
158 | K16D | 5.1
159 | K16E | 5.21
160 | K16F | 3.61
161 | K16G | 4.35
162 | K16H | 4.32
163 | K16I | 4.16
164 | K16L | 4.1
165 | K16M | 4.24
166 | K16N | 4.82
167 | K16P | 3.58
168 | K16Q | 4.44
169 | K16R | 4.55
170 | K16S | 4.1
171 | K16T | 4.87
172 | K16V | 4.17
173 | K16W | 4.09
174 | K16Y | 3.89
175 | E17A | 4.14
176 | E17C | 3.92
177 | E17D | 4.18
178 | E17F | 3.55
179 | E17G | 4.18
180 | E17H | 4.18
181 | E17I | 4.12
182 | E17K | 4.23

Row | Variant | protein stability index
183 | E17L | 3.76
184 | E17M | 3.86
185 | E17N | 3.63
186 | E17P | 4.41
187 | E17Q | 3.73
188 | E17R | 3.7
189 | E17S | 4.17
190 | E17T | 4.34
191 | E17V | 3.65
192 | E17W | 3.27
193 | E17Y | 3.79
194 | A18C | 4.43
195 | A18D | 4.89
196 | A18E | 5.02
197 | A18F | 3.82
198 | A18G | 4.35
199 | A18H | 4.8
200 | A18I | 4.14
201 | A18K | 4.06
202 | A18L | 4.2
203 | A18M | 4.57
204 | A18N | 4.42
205 | A18P | 4.88
206 | A18Q | 4.28
207 | A18R | 4.56
208 | A18S | 4.31

Row | Variant | protein stability index
209 | A18T | 4.35
210 | A18V | 4.26
211 | A18W | 4.27
212 | A18Y | 4.33
213 | C19A | 4.79
214 | C19D | 5.19
215 | C19E | 5.65
216 | C19F | 4.47
217 | C19G | 4.43
218 | C19H | 4.75
219 | C19I | 4.09
220 | C19K | 4.63
221 | C19L | 3.98
222 | C19M | 4.39
223 | C19N | 4.89
224 | C19P | 4.33
225 | C19Q | 4.77
226 | C19R | 4.45
227 | C19S | 4.6
228 | C19T | 5.12
229 | C19V | 4.77
230 | C19W | 4.45
231 | C19Y | 4.64
232 | D20A | 3.99
233 | D20C | 3.21
234 | D20E | 4.27

Row | Variant | protein stability index
235 | D20F | 3.75
236 | D20G | 3.56
237 | D20H | 3.95
238 | D20I | 3.35
239 | D20K | 4.05
240 | D20L | 3.68
241 | D20M | 3.63
242 | D20N | 4.3
243 | D20P | 3.56
244 | D20Q | 3.91
245 | D20R | 3.19
246 | D20S | 4.28
247 | D20T | 4.12
248 | D20V | 3.81
249 | D20W | 3.98
250 | D20Y | 3.97
251 | W21A | 5.41
252 | W21C | 5.35
253 | W21D | 5.77
254 | W21E | 5.01
255 | W21F | 4.66
256 | W21G | 5.35
257 | W21H | 5.29
258 | W21I | 4.62
259 | W21K | 5.44
260 | W21L | 5.22

Row | Variant | protein stability index
261 | W21M | 5.6
262 | W21N | 5.1
263 | W21P | 5
264 | W21Q | 5.47
265 | W21R | 5.4
266 | W21S | 5.05
267 | W21T | 5.17
268 | W21V | 4.89
269 | W21Y | 4.68
270 | L22A | 5.03
271 | L22C | 4.17
272 | L22D | 5.49
273 | L22E | 5.62
274 | L22F | 4.61
275 | L22G | 4.98
276 | L22H | 5
277 | L22I | 4.98
278 | L22K | 5.38
279 | L22M | 4.73
280 | L22N | 5.24
281 | L22P | 5.2
282 | L22Q | 5.03
283 | L22R | 4.5
284 | L22S | 5.09
285 | L22T | 4.82
286 | L22V | 4.73

Row | Variant | protein stability index
287 | L22W | 4.28
288 | L22Y | 4.22
289 | R23A | 4.67
290 | R23C | 4.73
291 | R23D | 5.42
292 | R23E | 5.36
293 | R23F | 4.33
294 | R23G | 4.42
295 | R23H | 4.75
296 | R23I | 4.68
297 | R23K | 4.62
298 | R23L | 3.87
299 | R23M | 4.45
300 | R23N | 5.1
301 | R23P | 4.7
302 | R23Q | 5.25
303 | R23S | 4.95
304 | R23T | 5.14
305 | R23V | 4.31
306 | R23W | 4.91
307 | R23Y | 3.8
308 | A24C | 4.55
309 | A24D | 5.14
310 | A24E | 5.03
311 | A24F | 4.32
312 | A24G | 4.78

Row | Variant | protein stability index
313 | A24H | 4.66
314 | A24I | 4.44
315 | A24K | 4
316 | A24L | 4.46
317 | A24M | 3.52
318 | A24N | 4.75
319 | A24P | 4.64
320 | A24Q | 4.67
321 | A24R | 4.23
322 | A24S | 4.65
323 | A24T | 4.46
324 | A24V | 4.58
325 | A24W | 3.7
326 | A24Y | 4.72

Variants of: B2
Assay: as above
Settings: c terminus: a fixed tail appended

Row | Variant | protein stability index
327 | R1C | 2.61
328 | R1D | 3.73
329 | R1E | 2.79
330 | R1F | 3.21
331 | R1G | 3.11
332 | R1H | 2.87
333 | R1I | 2.81
334 | R1K | 2.97
